One block for each molecule: values may come before it.
Tests used:
LR 49–313 = target: T1, LR 49–313 (Plenodomus lingam, UniProt Q9HGT7); assay: time-resolved absorption spectroscopy (photocycle); format: binding; details: covalent; DDM micelles; 5 μM all-trans-retinal added at solubilization
T1 construct: gene ops; N-terminally truncated 49-313, C-terminal polyhistidine tag, codon-optimised synthetic gene, expressed in Leishmania tarentolae (LEXSY), DDM; mostly monomer
T1 sequence (Q9HGT7 49-313): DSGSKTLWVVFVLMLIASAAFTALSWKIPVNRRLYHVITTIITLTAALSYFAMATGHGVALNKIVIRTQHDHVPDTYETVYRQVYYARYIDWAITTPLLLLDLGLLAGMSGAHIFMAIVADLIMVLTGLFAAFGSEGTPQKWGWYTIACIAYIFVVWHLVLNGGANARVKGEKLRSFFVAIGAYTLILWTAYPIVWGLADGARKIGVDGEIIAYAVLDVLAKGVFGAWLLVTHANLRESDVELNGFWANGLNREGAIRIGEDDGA

LR (Mac), LR 1–313 = target: T2, LR (Mac), LR 1–313 (Plenodomus lingam, UniProt Q9HGT7); assay: X-ray crystallography, […] Å; format: binding; details: covalent; retinal Schiff base at K270; pH 7.0
T2 construct: gene ops; full-length 1-313, C-terminal polyhistidine tag, codon-optimised synthetic gene, expressed in Leishmania tarentolae (LEXSY), DDM; likely trimer; residues 42-286 resolved
T2 sequence (Q9HGT7 1-313): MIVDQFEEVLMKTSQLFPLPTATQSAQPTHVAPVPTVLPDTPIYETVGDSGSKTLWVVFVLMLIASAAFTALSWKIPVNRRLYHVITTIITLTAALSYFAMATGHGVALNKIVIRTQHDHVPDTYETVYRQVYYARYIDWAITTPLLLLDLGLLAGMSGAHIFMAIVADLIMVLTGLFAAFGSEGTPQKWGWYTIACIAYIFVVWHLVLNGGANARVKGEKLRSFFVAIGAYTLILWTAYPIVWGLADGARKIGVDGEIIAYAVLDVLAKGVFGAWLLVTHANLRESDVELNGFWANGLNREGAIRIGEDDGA

[1] = target: Leptosphaeria rhodopsin LR (Mac), full-length (residues 1–313) (Leptosphaeria maculans); assay: SEC; Superdex 200 Increase 10/300 GL, 0.05% DDM micelles; masses calculated from retention volume at pH 8.0 (results; the methods give a SEC buffer of pH 6.5, 0.2 M NaCl); trimer to monomers
[2] = target: Leptosphaeria rhodopsin LR (Mac), full-length (residues 1–313) (Leptosphaeria maculans); assay: cross-linking; glutaraldehyde vapor for 30 min, then gradient SDS-PAGE 18.5-8%; protein in DDM micelles; untreated samples as control
[3] = target: Leptosphaeria rhodopsin LR, N-terminally truncated (residues 49–313) (Leptosphaeria maculans); assay: SEC; Superdex 200 Increase 10/300 GL, 0.05% DDM micelles; masses calculated from retention volume at pH 8.0 (results; the methods give a SEC buffer of pH 6.5, 0.2 M NaCl); trimer to monomers
[4] = target: Leptosphaeria rhodopsin LR, N-terminally truncated (residues 49–313) (Leptosphaeria maculans); assay: cross-linking; glutaraldehyde vapor for 30 min, then gradient SDS-PAGE 18.5-8%; protein in DDM micelles; untreated samples as control

Molecule: CC1=C(/C=C/C(C)=C/C=C/C(C)=C/C=O)C(C)(C)CCC1 [ATR, all-trans-retinal]
time-resolved absorption spectroscopy (photocycle) (LR 49–313): Both full-length and truncated constructs of LR in DDM micelles exhibit almost similar relaxation time | X-ray crystallography, 2.2 Å (LR (Mac), LR 1–313): retinal chromophore covalently attached to the K270 on the TM7

ratio between monomers and trimers (monomers:trimers) [1]: 0.4 | stoichiometry N [1]: 3 | stoichiometry N [2]: < 3
Molecule: Leptosphaeria rhodopsin LR (Mac), full-length (residues 1–313) (natural protein)

ratio between monomers and trimers (monomers:trimers) [3]: 40 | stoichiometry N [3]: 3 | stoichiometry N [4]: < 3
Molecule: Leptosphaeria rhodopsin LR, N-terminally truncated (residues 49–313) (domain or fragment)
